Measurements taken from patent US20240262912A1 (MERUS N V, published 2024).

Key:
[1] = molecular target: T1, Human CLEC12A on cells (HL60, CLEC12A-CHO-K1, primary blood, bone marrow and AML cells) (human, UniProt Q5QGZ9 1-265); assay: cell-based or functional assay
T1 sequence: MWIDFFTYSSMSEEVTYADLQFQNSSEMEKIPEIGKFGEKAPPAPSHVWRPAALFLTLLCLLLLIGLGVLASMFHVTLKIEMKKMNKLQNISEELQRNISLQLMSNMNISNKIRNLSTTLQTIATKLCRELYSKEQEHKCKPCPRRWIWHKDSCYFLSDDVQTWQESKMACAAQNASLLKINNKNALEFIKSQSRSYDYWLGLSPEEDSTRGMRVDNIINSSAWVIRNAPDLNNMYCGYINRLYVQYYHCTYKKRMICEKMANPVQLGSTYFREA

[2] = molecular target: T1, Human CLEC12A on cells (HL60, …); assay: cell-based or functional assay; remark: listed apart in the source
[3] = molecular target: T2, Recombinant purified CLEC12A-His (Sino Biologicals) (human, UniProt Q5QGZ9 65-265); assay: SPR (Biacore T100); antibody captured on CM5 chip through mouse anti-human IgG, recombinant CLEC12A-His run over the surface
T2 construct: Bought protein; 11896-H07H; not shown: His tag
T2 sequence: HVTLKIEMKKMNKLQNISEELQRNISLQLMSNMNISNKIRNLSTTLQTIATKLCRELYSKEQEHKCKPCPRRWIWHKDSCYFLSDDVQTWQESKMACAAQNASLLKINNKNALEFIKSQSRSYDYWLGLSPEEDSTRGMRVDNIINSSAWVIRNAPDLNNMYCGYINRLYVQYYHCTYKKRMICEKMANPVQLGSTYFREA

[4] = molecular target: T1, Human CLEC12A on cells (HL60, …); assay: cell-based or functional assay; remark: listed apart in the source

B1: Antibody MF4327×MF5196, full length human IgG1 CLEC12AxCD3 bispecific antibody with silenced Fc effector function (bispecific antibody, V domains shown)
VH 1: QVQLVQSGAEVKKPGASVKVSCKASGYTFTSYYMHWVRQAPGQGLEWMGIINPSGGSTSYAQKFQGRVTMTRDTSTSTVYMELSSLRSEDTAVYYCAKGTTGDWFDYWGQGTLVTVSS
VH 2: QVQLVQSGGGVVQPGRSLRLSCVASGFTFSSYGMHWVRQAPGKGLEWVAAIWYNARKQDYADSVKGRFTISRDNSKNTLYLQMNSLRAEDTAVYYCTRGTGYNWFDPWGQGTLVTVSS
VL: not shown
notes: Full length human IgG1 with a common light chain; The CH3 domains are engineered for heterodimerisation, and changes in the CH2 regions remove Fc effector function; also called CLEC12AxCD3 bispecific IgG; Fcγ receptor-silenced antibody MF4327×MF5196
median fold T cell expansion in primary AML samples, day 10 [1]: 48 fold
fold T cell expansion, primary AML sample of patient 10, day 10 [2]: 25 fold
fold T cell expansion, primary AML sample of patient 11, day 10 [2]: 6 fold
fold T cell expansion, primary AML sample of patient 12, day 10 [2]: 37 fold
fold T cell expansion, primary AML sample of patient 13, day 10 [2]: 139 fold
fold T cell expansion, primary AML sample of patient 14, day 10 (1,000 ng/mL) [2]: 64 fold
fold T cell expansion, primary AML sample of patient 15, day 10 (1,000 ng/mL) [2]: 25 fold
fold T cell expansion, primary AML sample of patient 16, day 10 [2]: 15 fold
fold T cell expansion, primary AML sample of patient 17, day 10 [2]: 98 fold
fold T cell expansion, primary AML sample of patient 18, day 10 [2]: 20 fold
fold T cell expansion, primary AML sample of patient 19, day 10 [2]: 60 fold
fold T cell expansion, primary AML sample of patient 20, day 10 (1,000 ng/mL) [2]: 157 fold
Kd [3]: 3 nM
CD25 on CD4 T cells, mean EC50 (HL60 cytotoxicity assay) [4]: 0.351 µg/mL
CD25 on CD8 T cells, mean EC50 (HL60 cytotoxicity assay) [4]: 0.0957 µg/mL
CD69 on CD4 T cells, mean EC50 (HL60 cytotoxicity assay) [4]: 0.156 µg/mL
CD69 on CD8 T cells, mean EC50 (HL60 cytotoxicity assay) [4]: 0.0444 µg/mL
HL60 cell lysis, mean EC50 [4]: 0.0682 µg/mL
